According to article PMC5449601:

B1: MALAT1 hairpin 2,515-A (structured_RNA)
RNA: AAUGUGAAGGACUUUCGUAACGGAAGUAAUUCAA
modifications: 3' biotin
B2: MALAT1 hairpin 2,515-m6A (structured_RNA)
RNA: AAUGUGAAGGACUUUCGUAACGGAAGUAAUUCAA
modifications: m6A at position 11; 3' biotin

Key:
[1] = target: HNRNPG N-RRM (GST fusion) (human, UniProt P38159 1-83); test: EMSA
[2] = target: HNRNPG C-RBD mutant, all three RGG to FGG (GST fusion) (human, UniProt P38159 334-391, R373F;R377F;R384F); test: UV cross-linking
[3] = target: HNRNPG C-RBD (GST fusion) (human, UniProt P38159 334-391); test: EMSA
Sequence of HNRNPG C-RBD (GST fusion) (P38159 334-391): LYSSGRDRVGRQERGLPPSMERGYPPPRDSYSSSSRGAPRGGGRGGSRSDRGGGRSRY

Sequence of HNRNPG C-RBD mutant, all three RGG to FGG (GST fusion) (P38159 334-391 R373F/R377F/R384F): as the sequence (P38159 334-391) above, with R40F, R44F, R51F counted along it
Sequence of HNRNPG N-RRM (GST fusion) (P38159 1-83): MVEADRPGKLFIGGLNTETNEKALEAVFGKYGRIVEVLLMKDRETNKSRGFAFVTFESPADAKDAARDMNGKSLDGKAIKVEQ

Row | Binder | binding result [1] | binding result [2] | binding result [3]
1 | B1 | no binding | no binding | binds
2 | B2 | no binding | no binding | binds
